Experimental data: PMC5127641 (eLife, 2016)
Several values for one entry are separate records, joined by “and”; a condition that tells them apart may be missing. Equal entries are not always repeated.

Target: M-CDP04 (αMCL1)
Assay: BLI; biotinylated BCL2 homolog (25 nM) immobilised on streptavidin biosensors, designed protein in solution at defined concentrations; Octet RED96; 10 mM HEPES pH 7.4, 150 mM NaCl, 3 mM EDTA, 0.05% surfactant P20, 0.5% non-fat dry milk; titrations in triplicate, 1:1 binding model
Conditions: both partners purified

- koff: 0.199 s⁻¹ and 0.186 s⁻¹ and 0.148 s⁻¹ and 0.178 s⁻¹
- kon: 5830 M⁻¹ s⁻¹ and 9300 M⁻¹ s⁻¹ and 13200 M⁻¹ s⁻¹ and 9440 M⁻¹ s⁻¹
B1: Bcl-B (natural protein)
chain: ADPLRERTELLLADYLGYCAREPGTPEPAPSTPEAAVLRSAAARLRQIHRSFFSAYLGYPGNRFELVALMADSVLSDSPGPTWGRVVTLVTFAGTLLERGPLVTARWKKWGFQPRLKEQEGDVARDCQRLVALLSSRLMGQHRAWLQAQGGWDGFCHFFRTPFPLA
modifications: biotin (enzymatic, BirA)
